From the FLAb antibody collection (doi:10.7554/elife.23156) come the findings set out here.

To fix the notation:
B1: scFv; the commonest letter at each place (parent)
chain 1: EVKLDETGGGLVQPGRPMKLSCVASGFTFSDYWMNWVRQSPEKGLEWVAQIRNKPYNYETYYSDSVKGRFTISRDDSKSSVYLQMNNLRVEDMGIYYCTGSYYGMDYWGQGTSVTVS
chain 2: DVVMTQTPLSLPVSLGDQASISCRSSQSLVHSNGNTYLRWYLQKPGQSPKVLIYKVSNRFSGVPDRFSGSGSGTDFTLKISRVEAEDLGVYFCSQSTHVPWTFGGGTKLEIK

In series [1] the parent is B1. Put plainly: Kd (Tite-Seq). The settings on record: with fluorescein; format: scFv 4-4-20, heavy + light.
The variants in series [2] derive from B1. Put plainly: yeast surface expression (ratio to wild type); higher = more expressed. To be noted: format: scFv 4-4-20, heavy + light.

The term Kd denotes the concentration at which binding is half-saturated.

Turning to chain 1 G100L G104S, the Kd in series [1] is no less than 10 µM. Further, the yeast surface expression in series [2] is 0.51.
In the same order, the values of chain 1 G100Q are no less than 10 µM and 0.476.
As for chain 1 G100L, the Kd in series [1] is no less than 10 µM. The yeast surface expression in series [2] stood at 0.747.
With chain 1 G100P, in series [1], the Kd was no less than 10 µM. Besides, the yeast surface expression in series [2] was found to be 0.758.
The like results for chain 1 G100D were, in that order, no less than 10 µM and 0.453.
In the same order, the values of chain 1 G100S are 0.0038 µM and 0.938.
As for chain 1 G100C, in series [1], the Kd turned out to be 0.00162 µM. Moreover, the yeast surface expression in series [2] came to 0.893.
The like results for chain 1 G100N were, in that order, no less than 10 µM and 0.668.
Consider chain 1 G100K, for which the Kd in series [1] is no less than 10 µM. Also, the yeast surface expression in series [2] stood at 0.395.
The like results for chain 1 G100A were, in that order, 0.0017 µM and 0.964.
In the same order, the values of chain 1 G100I are no less than 10 µM and 0.852.
In the same order, the values of chain 1 G100H are no less than 10 µM and 0.432.
With chain 1 G100R, the Kd in series [1] is no less than 10 µM. For the same variant, the yeast surface expression in series [2] came out at 0.624.
With chain 1 G100E, the Kd in series [1] was no less than 10 µM. Also, the yeast surface expression in series [2] was 0.388.
For chain 1 G100F, the Kd in series [1] was no less than 10 µM. Further, the yeast surface expression in series [2] was 0.93.
In the case of chain 1 G100M, the Kd in series [1] was no less than 10 µM. Moreover, the yeast surface expression in series [2] is 0.759.
With chain 1 F29V W33N, the Kd in series [1] is no less than 10 µM. Moreover, the yeast surface expression in series [2] amounted to 0.722.
For chain 1 G100D G109H, the Kd in series [1] is no less than 10 µM. For the same variant, the yeast surface expression in series [2] worked out at 0.602.
The like results for chain 1 G100D G109T were, in that order, no less than 10 µM and 0.21.
As to chain 1 G100D G109V, the Kd in series [1] was no less than 10 µM. Moreover, the yeast surface expression in series [2] worked out at 0.136.
Regarding chain 1 G100D G109I, the Kd in series [1] is no less than 10 µM. Moreover, the yeast surface expression in series [2] was determined as 0.553.
The like results for chain 1 G100D G109N were, in that order, no less than 10 µM and 0.118.
In the same order, the values of chain 1 G100A Y103L W108G are 5.96 µM and 0.436.
For the variant chain 1 G100D Y102S, the Kd in series [1] is no less than 10 µM. In addition, the yeast surface expression in series [2] was 0.289.
Turning to chain 1 F29W S30I, in series [1], the Kd is no less than 10 µM. In addition, the yeast surface expression in series [2] stood at 0.599.
In the same order, the values of chain 1 G100A M105Q are 0.0245 µM and 1.15.
In the same order, the values of chain 1 G100P G109A are no less than 10 µM and 0.3.
Turning to chain 1 G100P G109S, the Kd in series [1] is no less than 10 µM. Moreover, the yeast surface expression in series [2] turned out to be 0.485.
In the case of chain 1 F29Y N35A, the Kd in series [1] is no less than 10 µM. For the same variant, the yeast surface expression in series [2] is 0.842.
With chain 1 F29Y N35H, in series [1], the Kd is no less than 10 µM. Moreover, in series [2], the yeast surface expression turned out to be 0.732.
The like results for chain 1 F29Y N35W were, in that order, no less than 10 µM and 0.0981.
The like results for chain 1 G100L G109S were, in that order, 9.5 µM and 0.566.
Take chain 1 G100L G109R: the Kd in series [1] was no less than 10 µM. Also, the yeast surface expression in series [2] was 0.268.
In the same order, the values of chain 1 G100L G109V are no less than 10 µM and 0.253.
For chain 1 F29Y V37I, the Kd in series [1] stood at 0.00194 µM. Also, the yeast surface expression in series [2] was 0.9.
As to chain 1 F29Y V37P, the Kd in series [1] came to 0.228 µM. Also, the yeast surface expression in series [2] was 2.26.
For the variant chain 1 F29Y V37L, in series [1], the Kd was no less than 10 µM. Also, in series [2], the yeast surface expression came out at 0.669.
In the same order, the values of chain 1 G100D G104A are no less than 10 µM and 0.116.
The like results for chain 1 G100N S101I were, in that order, no less than 10 µM and 0.189.
In the same order, the values of chain 1 G100N S101C are no less than 10 µM and 0.234.
For chain 1 G100Q Y103R D106L, the Kd in series [1] was no less than 10 µM. Also, in series [2], the yeast surface expression was 0.235.
In the case of chain 1 G100L W108Q, in series [1], the Kd was no less than 10 µM. Moreover, the yeast surface expression in series [2] was 0.477.
Turning to chain 1 G100Q W108R, the Kd in series [1] was no less than 10 µM. In addition, the yeast surface expression in series [2] stood at 0.232.
On to chain 1 G100Q W108N, for which the Kd in series [1] was no less than 10 µM. Also, in series [2], the yeast surface expression turned out to be 0.289.
The like results for chain 1 F29V Y32S were, in that order, 8.13 µM and 0.999.
In the same order, the values of chain 1 G100P M105S G109M are no less than 10 µM and 0.234.
In the same order, the values of chain 1 G100P W108M are no less than 10 µM and 0.572.
In the case of chain 1 G100R Y107N G109K, in series [1], the Kd is no less than 10 µM. The yeast surface expression in series [2] amounted to 0.235.
In the same order, the values of chain 1 G100R Y107P W108D are no less than 10 µM and 0.43.
The like results for chain 1 G100F Y107I were, in that order, no less than 10 µM and 0.947.
As for chain 1 G100F Y107T, the Kd in series [1] is no less than 10 µM. The yeast surface expression in series [2] was 0.842.
Turning to chain 1 F29Y D31E W33G, the Kd in series [1] is no less than 10 µM. In addition, the yeast surface expression in series [2] was found to be 1.63.
The like results for chain 1 G100N D106Y were, in that order, no less than 10 µM and 0.146.
In the same order, the values of chain 1 G100N D106N are no less than 10 µM and 0.287.
As for chain 1 G100N D106I, the Kd in series [1] is no less than 10 µM. For the same variant, the yeast surface expression in series [2] turned out to be 0.203.
Consider chain 1 G100S D106C, for which the Kd in series [1] is no less than 10 µM. Further, in series [2], the yeast surface expression amounted to 1.03.
The like results for chain 1 G100N Y107K were, in that order, no less than 10 µM and 0.6.
